One assay deals with HLA-B*07:02 (Homo sapiens, UniProt P01889). Kind of assay: MHC binding assay (UV-ligand exchange, β2m ELISA). The note with it: peptide exchange yield, binding to HLA-B*07:02.
The target in a further assay is HLA-A*24:02 (Homo sapiens, UniProt P04439, D101N/D140Y/D185E/E176V/E190D/F33S/G103R/G107R/I119L/I121M/I306V/K335N/L105A/L180Q/L300P/N151K/N90K/Q86E/Q94H/R106L/R138H/R89G/T104I/T345S/V100E/W191G/Y123F). Description: MHC binding assay (UV-ligand exchange, β2m ELISA). The settings on record: peptide exchange yield, binding to HLA-A*24:02. (In an ELISA, binding on a coated surface is turned into a signal by an enzyme label.)

The subject of another assay is CD8+ T cells. Description: In vitro immunogenicity: T-cell priming with aAPCs loaded with peptide/MHC and anti-CD28, multimer readout. Type of assay: cell-based, human.
The next assay addresses HLA-A*01:01 (Homo sapiens, UniProt P04439, A114D/A174V/A182V/D101N/D185E/E176A/E190D/L180R/Q94H/R68K/S129P/T187R/V100A/V91M/W191G). Description: MHC binding assay (UV-ligand exchange, β2m ELISA). The settings on record: peptide exchange yield.

For “257 (SPLRGGSSL; listed as Homo sapiens) [compound 257]”, the Peptide exchange result with HLA-B*07:02 is given as ““++” (>20% = ++)”. For “123 (RQYLAINQI; listed as Homo sapiens) [compound 123]”, in the assay with HLA-A*24:02, the Peptide exchange result is recorded as ““+” (>10% = +)”. Still for that read-out and setting: the same measure for “121 (SYIEKVRFL; listed as Homo sapiens) [compound 121]”: ““+++” (>50 = +++)”. As for “175 (HPIETLVDIF; listed as Homo sapiens) [compound 175]”, the Peptide exchange result in the assay with HLA-B*07:02 is given as ““++” (>20% = ++)”. As to “170 (SPMWHVQQL; listed as Homo sapiens) [compound 170]”, the “Wells positive [%]” value in the assay on CD8+ T cells (HLA B*07) is recorded as ““++++” (>= 70% = ++++)”. In addition, in the assay with HLA-B*07:02, the Peptide exchange result is reported as ““+++” (>50 = +++)”. As for “153 (APAAVPSAPA; listed as Homo sapiens) [compound 153]”, in the assay with HLA-B*07:02, the Peptide exchange entry was ““+++” (>50 = +++)”. With “125 (IYGPKYIHPSF; listed as Homo sapiens) [compound 125]”, in the assay with HLA-A*24:02, the Peptide exchange entry was ““++++” (>75% = ++++)”.

Take “139 (PYASLASELF; listed as Homo sapiens) [compound 139]”: the Peptide exchange entry in the assay with HLA-A*24:02 is reported as ““++++” (>75% = ++++)”. The same measure, in the same setting: the same measure for “127 (IFINLSPEF; listed as Homo sapiens) [compound 127]”: ““++++” (>75% = ++++)”; for “122 (KLYGMPTDFGF; listed as Homo sapiens) [compound 122]”: ““++” (>20% = ++)”. For “155 (FPYPYAERL; listed as Homo sapiens) [compound 155]”, in the assay with CD8+ T cells (HLA B*07), the “Wells positive [%]” value was ““+++” (50%-69% = +++)”. The Peptide exchange entry with HLA-B*07:02 is given as ““++” (>20% = ++)”.

“116 (LVLDYSKDYNHW; listed as Homo sapiens) [compound 116]”: in the assay with HLA-A*24:02, the Peptide exchange entry is ““+” (>10% = +)”.

Consider “168 (IPTDKLLVI; listed as Homo sapiens) [compound 168]”, for which, in the assay with HLA-B*07:02, the Peptide exchange result is given as ““++” (>20% = ++)”.

For the substance “149 (YPLTGDTRL; listed as Homo sapiens) [compound 149]”, in the assay with HLA-B*07:02, the Peptide exchange result is reported as ““++” (>20% = ++)”. In the case of “118 (TYISKTIAL; listed as Homo sapiens) [compound 118]”, in the assay with HLA-A*24:02, the Peptide exchange result is ““+++” (>50 = +++)”. With “33 (FADKIHLAY; listed as Homo sapiens) [compound 33]”, in the assay on CD8+ T cells (HLA A*01), the “Wells positive [%]” value is ““++” (20%-49% = ++)”. The Peptide exchange entry in the assay with HLA-A*01:01 is ““++” (>20% = ++)”.

Turning to “140 (KYLSIPAVF; listed as Homo sapiens) [compound 140]”, in the assay with HLA-A*24:02, the Peptide exchange entry is ““++++” (>75% = ++++)”. For the substance “161 (NPYEGRVEV; listed as Homo sapiens) [compound 161]”, the Peptide exchange entry with HLA-B*07:02 is reported as ““++” (>20% = ++)”. The same measure, in the same setting: the same measure for “147 (SPIKVPLLL; listed as Homo sapiens) [compound 147]”: ““+++” (>50 = +++)”.

For “156 (HPQVVILSL; listed as Homo sapiens) [compound 156]”, the “Wells positive [%]” value in the assay with CD8+ T cells (HLA B*07) was ““++” (20%-49% = ++)”. Besides, the Peptide exchange result with HLA-B*07:02 is listed as ““+++” (>50 = +++)”. Regarding “162 (MPMISIPRV; listed as Homo sapiens) [compound 162]”, in the assay with HLA-B*07:02, the Peptide exchange entry is listed as ““++” (>20% = ++)”. Same read-out and setting: the same measure for “167 (YPSEVEHMF; listed as Homo sapiens) [compound 167]”: ““++” (>20% = ++)”; for “158 (VPERGEPEL; listed as Homo sapiens) [compound 158]”: ““++” (>20% = ++)”. As to “117 (NFLPPIIARF; listed as Homo sapiens) [compound 117]”, in the assay with HLA-A*24:02, the Peptide exchange entry is listed as ““++++” (>75% = ++++)”. On to “157 (SPSPGKDPTL; listed as Homo sapiens) [compound 157]”, for which the Peptide exchange result with HLA-B*07:02 was ““++” (>20% = ++)”. As for “245 (ITEKNSGLY; listed as Homo sapiens) [compound 245]”, the “Wells positive [%]” value in the assay on CD8+ T cells (HLA A*01) was ““+++” (50%-69% = +++)”. Moreover, the Peptide exchange entry in the assay with HLA-A*01:01 was ““+++” (>50 = +++)”. Turning to “146 (SPGDKRLAA; listed as Homo sapiens) [compound 146]”, the “Wells positive [%]” value in the assay on CD8+ T cells (HLA B*07) is recorded as ““++” (20%-49% = ++)”. Further, in the assay with HLA-B*07:02, the Peptide exchange result is on record as ““+++” (>50 = +++)”.

Regarding “154 (GPGTRLSL; listed as Homo sapiens) [compound 154]”, in the assay with HLA-B*07:02, the Peptide exchange result is ““++” (>20% = ++)”. Take “144 (IPEPSAQQL; listed as Homo sapiens) [compound 144]”: the “Wells positive [%]” value in the assay with CD8+ T cells (HLA B*07) is ““+” (<20% = +)”. The Peptide exchange result with HLA-B*07:02 was ““++” (>20% = ++)”. Consider “150 (KPSSKALGTSL; listed as Homo sapiens) [compound 150]”, for which the Peptide exchange entry with HLA-B*07:02 is reported as ““+++” (>50 = +++)”. Regarding “160 (RPAPADSAL; listed as Homo sapiens) [compound 160]”, in the assay with HLA-B*07:02, the Peptide exchange entry is on record as ““+++” (>50 = +++)”.

With “1 (RSDPVTLDV; listed as Homo sapiens) [compound 1]”, the “Wells positive [%]” value in the assay on CD8+ T cells (HLA A*01) was ““++” (20%-49% = ++)”. In addition, the Peptide exchange entry in the assay with HLA-A*01:01 is ““+++” (>50 = +++)”.

In the case of “173 (MVPSAGQLALF; listed as Homo sapiens) [compound 173]”, the Peptide exchange result with HLA-B*07:02 is given as ““++” (>20% = ++)”. Turning to “247 (RSDPGGGGLAY; listed as Homo sapiens) [compound 247]”, the “Wells positive [%]” value in the assay with CD8+ T cells (HLA A*01) was ““+” (<20% = +)”. Further, the Peptide exchange result with HLA-A*01:01 was ““+++” (>50 = +++)”. Turning to “28 (LTDYINANY; listed as Homo sapiens) [compound 28]”, the “Wells positive [%]” value with CD8+ T cells (HLA A*01) is ““+” (<20% = +)”. Moreover, the Peptide exchange result with HLA-A*01:01 is recorded as ““+++” (>50 = +++)”.

“24 (YTHHLFIFY; listed as Homo sapiens) [compound 24]”: the “Wells positive [%]” value in the assay on CD8+ T cells (HLA A*01) was ““+” (<20% = +)”. In addition, the Peptide exchange entry in the assay with HLA-A*01:01 is recorded as ““+” (>10% = +)”. Turning to “166 (HDPDVGSNSL; listed as Homo sapiens) [compound 166]”, the Peptide exchange result with HLA-B*07:02 is recorded as ““++” (>20% = ++)”. For “20 (STDEITTRY; listed as Homo sapiens) [compound 20]”, the “Wells positive [%]” value in the assay with CD8+ T cells (HLA A*01) is ““+” (<20% = +)”. For the same substance, the Peptide exchange entry with HLA-A*01:01 is given as ““+++” (>50 = +++)”. Take “259 (RPAVGHSGL; listed as Homo sapiens) [compound 259]”: in the assay with HLA-B*07:02, the Peptide exchange entry is on record as ““++” (>20% = ++)”.

With “151 (VVHPRTLLL; listed as Homo sapiens) [compound 151]”, the Peptide exchange result with HLA-B*07:02 was ““++” (>20% = ++)”.

For “6 (VLDLSTNVY; listed as Homo sapiens) [compound 6]”, the “Wells positive [%]” value with CD8+ T cells (HLA A*01) is reported as ““++” (20%-49% = ++)”. Moreover, in the assay with HLA-A*01:01, the Peptide exchange entry is ““+++” (>50 = +++)”.

As to “256 (LPALPQQLI; listed as Homo sapiens) [compound 256]”, in the assay with HLA-B*07:02, the Peptide exchange entry is on record as ““+++” (>50 = +++)”. The same measure, in the same setting: the same measure for “145 (RVPSYTLIL; listed as Homo sapiens) [compound 145]”: ““+++” (>50 = +++)”. With “172 (KPAHYPLIAL; listed as Homo sapiens) [compound 172]”, the “Wells positive [%]” value with CD8+ T cells (HLA B*07) was ““+++” (50%-69% = +++)”. Further, in the assay with HLA-B*07:02, the Peptide exchange entry is on record as ““+++” (>50 = +++)”. Taken in the same sequence, the figures for “255 (LPDGSRVEL; listed as Homo sapiens) [compound 255]” were ““++++” (>= 70% = ++++)” and ““++” (>20% = ++)”.

As for “258 (APSGTRVVQVL; listed as Homo sapiens) [compound 258]”, the Peptide exchange result in the assay with HLA-B*07:02 was ““++” (>20% = ++)”. On the same count and under the same terms, the same measure for “169 (FPTEVTPHAF; listed as Homo sapiens) [compound 169]”: ““++” (>20% = ++)”. Take “164 (ISTPSEVSTPL; listed as Homo sapiens) [compound 164]”: in the assay with CD8+ T cells (HLA B*07), the “Wells positive [%]” value was ““+” (<20% = +)”. In the assay with HLA-B*07:02, the Peptide exchange result is listed as ““++” (>20% = ++)”. In the case of “159 (FPAHPSLLL; listed as Homo sapiens) [compound 159]”, the Peptide exchange entry in the assay with HLA-B*07:02 is ““++” (>20% = ++)”.

As for “165 (TPIAKVSEL; listed as Homo sapiens) [compound 165]”, the Peptide exchange result with HLA-B*07:02 is given as ““+++” (>50 = +++)”.

As to “31 (VTDLEMPHY; listed as Homo sapiens) [compound 31]”, the “Wells positive [%]” value in the assay on CD8+ T cells (HLA A*01) is ““+” (<20% = +)”. Besides, in the assay with HLA-A*01:01, the Peptide exchange entry is on record as ““++++” (>75% = ++++)”. “35 (FASDLLHLY; listed as Homo sapiens) [compound 35]”: the Peptide exchange entry with HLA-A*01:01 is listed as ““++” (>20% = ++)”. Still for that read-out and setting: under “25 (LMKEVMEHY; listed as Homo sapiens) [compound 25]” stands ““++” (>20% = ++)”; under “29 (SVTDLEMPHY; listed as Homo sapiens) [compound 29]”, ““+” (>10% = +)”. “152 (IPSRLLAIL; listed as Homo sapiens) [compound 152]”: in the assay with HLA-B*07:02, the Peptide exchange result is recorded as ““+++” (>50 = +++)”. “148 (VPDGVSKVL; listed as Homo sapiens) [compound 148]”: in the assay on CD8+ T cells (HLA B*07), the “Wells positive [%]” value was ““+++” (50%-69% = +++)”. For the same substance, the Peptide exchange entry with HLA-B*07:02 was ““++” (>20% = ++)”. Turning to “174 (VPSLQRLML; listed as Homo sapiens) [compound 174]”, the Peptide exchange entry with HLA-B*07:02 is listed as ““+++” (>50 = +++)”. With “37 (LTDSFPLKV; listed as Homo sapiens) [compound 37]”, the “Wells positive [%]” value in the assay with CD8+ T cells (HLA A*01) is reported as ““+++” (50%-69% = +++)”. Further, the Peptide exchange entry with HLA-A*01:01 is listed as “u+++” (>50 = +++)”.

In the case of “143 (FELPTGAGLQL; listed as Homo sapiens) [compound 143]”, the Peptide exchange entry with HLA-B*07:02 was ““++” (>20% = ++)”. The same measure, in the same setting: the same measure for “163 (RPASSLRP; listed as Homo sapiens) [compound 163]”: ““++” (>20% = ++)”; for “171 (APKLFAVAF; listed as Homo sapiens) [compound 171]”: ““+++” (>50 = +++)”.
